In paper PMC7402679:
Where “and” joins values, the source holds several entries; their conditions need not be identical. Equal entries are not always repeated.

Target: HA-tagged MnPV L1_(SHORT), expressed in Mastomys-derived fibroblasts (Mastomys natalensis papillomavirus (MnPV))
Assay: SDS-PAGE and western blot of high-MW (multimer) bands; lysates of transfected MaFi132 cells in 1.25x Laemmli buffer (2.5% SDS, 2.5% beta-mercaptoethanol), 95 C 5 min; 8% SDS-PAGE; detected with mAb 2D11, Mastomys serum mix and anti-HA

Q: “HA-tagged MnPV L1_(SHORT), expressed in Mastomys-derived fibroblasts (natural protein)” was tested. Which stoichiometry N did it give?
A: 2 and 3
